In US20240400657A1 (MorphoSys, published 2024):
Numbering of substitutions follows the chain as printed.

T1: Human FcγRIIa (1-209)-(131H)-HIS6 (human, UniProt P12318 34-209)
T1 construct: Extracellular region with C-terminal 6xHis tag; UniProt P12318 printed
T1 sequence: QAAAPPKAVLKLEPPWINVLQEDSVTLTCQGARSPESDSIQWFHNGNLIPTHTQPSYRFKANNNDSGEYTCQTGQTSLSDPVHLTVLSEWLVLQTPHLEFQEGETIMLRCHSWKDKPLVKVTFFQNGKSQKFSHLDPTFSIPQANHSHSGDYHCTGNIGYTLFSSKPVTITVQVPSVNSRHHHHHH

T2: Human FcγRIIa (1-209)-(131R)-HIS6 (human, UniProt P12318 34-209)
T2 construct: Extracellular region with C-terminal 6xHis tag; UniProt P12318 printed
T2 chain: T1 sequence with H134R

T3: Human FcγRIIB (1-202)-HIS6 (human, UniProt P31994 43-217)
T3 construct: Extracellular region with C-terminal 6xHis tag; UniProt P31994 printed
T3 sequence: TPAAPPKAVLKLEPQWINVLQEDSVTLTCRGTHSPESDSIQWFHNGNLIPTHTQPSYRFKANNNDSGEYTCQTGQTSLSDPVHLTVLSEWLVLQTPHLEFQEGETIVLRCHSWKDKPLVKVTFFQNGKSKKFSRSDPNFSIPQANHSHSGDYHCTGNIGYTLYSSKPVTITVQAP

T4: human C5aR_NT-bio peptide (human, biotin tag (position not given))
T4 construct: Chemically synthesized linear peptide (Genscript); also called human C5aR N-terminal peptide; human C5aR peptide
T4 peptide: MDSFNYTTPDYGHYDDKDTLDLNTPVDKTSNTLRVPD

B1: MAB #2 (antibody, human IgG1, lambda)
heavy: EVQLVESGGGLVKPGGSLRLSCAASGFTFSSYAMHWVRQAPGKGLEWVGRIKSVAQGGTTDYAAHVKGRFTISRDDSKNTLYLQMNSLKTEDTAVYYCARVSHSTFDVWGQGTLVTVSSASTKGPSVFPLAPSSKSTSGGTAALGCLVKDYFPEPVTVSWNSGALTSGVHTFPAVLQSSGLYSLSSVVTVPSSSLGTQTYICNVNHKPSNTKVDKRVEPKSCDKTHTCPPCPAPEAEGAPSVFLFPPKPKDTLMISRTPEVTCVVVDVSHEDPEVKFNWYVDGVEVHNAKTKPREEQYNSTYRVVSVLTVLHQDWLNGKEYKCKVSNKALPSSIEKTISKAKGQPREPQVYTLPPSREEMTKNQVSLTCLVKGFYPSDIAVEWESNGQPENNYKTTPPVLDSDGSFFLYSKLTVDKSRWQQGNVFSCSVMHEALHNHYTQKSLSLSPGK
light: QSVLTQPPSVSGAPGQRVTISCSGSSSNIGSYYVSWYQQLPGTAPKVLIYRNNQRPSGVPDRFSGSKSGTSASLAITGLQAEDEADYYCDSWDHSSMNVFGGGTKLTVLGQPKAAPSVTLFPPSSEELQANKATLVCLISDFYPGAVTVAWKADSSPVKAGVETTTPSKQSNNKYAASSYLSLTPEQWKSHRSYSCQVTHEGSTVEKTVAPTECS
notes: lambda 1 light chain
B2: MAB #1 (antibody, human IgG1, lambda)
heavy: B1 heavy with V54K, H103F
light: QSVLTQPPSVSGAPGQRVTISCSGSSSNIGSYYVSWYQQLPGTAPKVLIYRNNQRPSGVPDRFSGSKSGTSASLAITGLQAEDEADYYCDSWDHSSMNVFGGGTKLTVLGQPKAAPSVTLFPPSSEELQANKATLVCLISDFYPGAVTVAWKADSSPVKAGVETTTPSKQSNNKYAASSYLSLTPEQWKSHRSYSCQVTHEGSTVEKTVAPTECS
notes: lambda 1 light chain, VH3-15 framework

Experiments:
[1] = target: T5, Human FcγRI (1-279)_HIS6 (human, UniProt P12314 16-280); assay: BLI (Octet), IgG captured on Protein A sensors, FcγR titrated
T5 construct: Extracellular region with C-terminal 6xHis tag; UniProt P12314 printed
T5 sequence (P12314 other isoform, or with tags, fused parts or gaps): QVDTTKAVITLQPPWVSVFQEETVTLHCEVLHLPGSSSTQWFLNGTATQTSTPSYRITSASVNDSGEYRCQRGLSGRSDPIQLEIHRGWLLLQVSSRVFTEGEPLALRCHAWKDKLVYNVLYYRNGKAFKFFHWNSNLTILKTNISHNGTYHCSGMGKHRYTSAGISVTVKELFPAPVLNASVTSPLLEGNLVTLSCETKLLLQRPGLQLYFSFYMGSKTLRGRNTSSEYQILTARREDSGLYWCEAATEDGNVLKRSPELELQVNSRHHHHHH
Procedure: (§1) 2.0 nm of IgGs diluted in Octet assay buffer (PBS, 0.05% (v/v) Tween-20, 0.1% (w/v) BSA) were captured on Protein A sensors (FortéBIO, Pall Life Sciences). Kinetic measurements were performed using 7 concentrations of Fc gamma receptors (2n serial dilution) in assay buffer. […] All sensorgrams were fitted using Data Analysis Software 10.0, (FortéBIO, Pall Life Sciences) to determine kₒₙ and koff rate constants, which were used to calculate KD. The raw data was fitted with a 1:1 binding model, with parameter Rₘₐₓ set to local.

[2] = target: T1, Human FcγRIIa (1-209)-(131H)-HIS6; assay: as above
Procedure: as §1

[3] = target: T2, Human FcγRIIa (1-209)-(131R)-HIS6; assay: as above
Procedure: as §1

[4] = target: T6, Human FcγRIIIa (1-193)-(158F)-HIS6 (human, UniProt P08637 17-193); assay: as above
T6 construct: Extracellular region with C-terminal 6xHis tag; UniProt P08637 printed
T6 sequence (P08637 other isoform, or with tags, fused parts or gaps): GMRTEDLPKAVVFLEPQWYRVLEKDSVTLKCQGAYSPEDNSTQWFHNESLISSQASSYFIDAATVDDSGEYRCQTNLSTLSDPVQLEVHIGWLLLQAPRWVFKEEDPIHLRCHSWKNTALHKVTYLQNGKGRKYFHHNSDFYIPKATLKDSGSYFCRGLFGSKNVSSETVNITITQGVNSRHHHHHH
Procedure: as §1

[5] = target: T3, Human FcγRIIB (1-202)-HIS6; assay: as above
Procedure: as §1

[6] = target: T7, Protein A; assay: Protein Panel Profiling (3P), MSD ECL, coated antigen, IgG 10 nM
T7 construct: control of the 3P panel
Procedure: (§2) 32 different proteins and controls were coated on two 384-well MSD standard plates at a concentration of 1.0 μg/mL at 4° C. over night. The coating solution was discarded and plates were blocked with 50 μL 3% (w/v) BSA in PBS for one hour at RT on a microtiter plate shaker (˜500 rpm) followed by three washing steps with 50 μL washing buffer (PBS with 0.05% (v/v) Tween 20). IgG samples were diluted to 100 nM and 10 nM in assay buffer (PBS with 0.5% (w/v) BSA, 0.05% (v/v) Tween 20). As controls, isotype control antibody MOR03207 (IgG1f_AEASS) and assay buffer were used. Samples and controls were added at 30 μL/well and incubated for three hours at RT on a microtiter plate shaker. The plates were washed three times and 30 μL detection antibody (ECL-labeled anti-human Fab) were added per well and incubated for one hour on a microtiter plate shaker (˜500 rpm). After washing the MSD plate and adding 35 μL/well MSD Read Buffer T with surfactant, electro-chemiluminescence signals were detected using a SECTOR® Imager S600 instrument (Meso Scale Diagnostics).
(§3) For evaluation, binding signals of the antibody sample to a certain protein were divided by the respective binding signals of the reference antibody MOR03207 resulting in a binding ratio (BR). The cumulative binding ratio (CBR) of all proteins except the controls (25 in total) was then calculated: CBR up to 150 indicates an IgG without detectable unspecific binding. Values above 150 indicates an IgG with increased unspecific binding compared to the reference antibody MOR03207.

[7] = target: Pepsinogen; assay: as above
Procedure: as §2, §3

[8] = target: Amyloglycosidase; assay: as above
Procedure: as §2, §3

[9] = target: Trypsin inhibitor; assay: as above
Procedure: as §2, §3

[10] = target: Cytochrome C; assay: as above
Procedure: as §2, §3

[11] = target: Myoglobin; assay: as above
Procedure: as §2, §3

[12] = target: Lectin; assay: as above
Procedure: as §2, §3

[13] = target: Ovalbumin; assay: as above
Ovalbumin, sequence (P01012 2-386): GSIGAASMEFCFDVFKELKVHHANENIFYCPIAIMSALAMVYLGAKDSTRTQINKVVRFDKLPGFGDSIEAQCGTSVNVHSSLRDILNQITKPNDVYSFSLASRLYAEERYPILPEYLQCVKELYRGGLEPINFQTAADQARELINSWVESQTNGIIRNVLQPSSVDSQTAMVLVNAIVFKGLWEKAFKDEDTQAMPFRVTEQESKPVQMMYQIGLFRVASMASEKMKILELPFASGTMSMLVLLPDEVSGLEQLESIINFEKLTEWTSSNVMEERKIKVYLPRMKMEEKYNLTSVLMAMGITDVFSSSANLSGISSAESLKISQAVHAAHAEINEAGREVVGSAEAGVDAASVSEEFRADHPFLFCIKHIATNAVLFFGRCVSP
Procedure: as §2, §3

[14] = target: RNase B; assay: as above
RNase B, sequence (P61823 27-150): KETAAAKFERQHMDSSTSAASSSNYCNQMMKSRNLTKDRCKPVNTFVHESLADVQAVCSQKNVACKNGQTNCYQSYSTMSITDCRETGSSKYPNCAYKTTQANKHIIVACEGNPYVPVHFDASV
Procedure: as §2, §3

[15] = target: T8, Serum albumin (h) (human); assay: as above
T8 construct: '(h)' on the sheet read as human
T8 sequence (P02768 25-609): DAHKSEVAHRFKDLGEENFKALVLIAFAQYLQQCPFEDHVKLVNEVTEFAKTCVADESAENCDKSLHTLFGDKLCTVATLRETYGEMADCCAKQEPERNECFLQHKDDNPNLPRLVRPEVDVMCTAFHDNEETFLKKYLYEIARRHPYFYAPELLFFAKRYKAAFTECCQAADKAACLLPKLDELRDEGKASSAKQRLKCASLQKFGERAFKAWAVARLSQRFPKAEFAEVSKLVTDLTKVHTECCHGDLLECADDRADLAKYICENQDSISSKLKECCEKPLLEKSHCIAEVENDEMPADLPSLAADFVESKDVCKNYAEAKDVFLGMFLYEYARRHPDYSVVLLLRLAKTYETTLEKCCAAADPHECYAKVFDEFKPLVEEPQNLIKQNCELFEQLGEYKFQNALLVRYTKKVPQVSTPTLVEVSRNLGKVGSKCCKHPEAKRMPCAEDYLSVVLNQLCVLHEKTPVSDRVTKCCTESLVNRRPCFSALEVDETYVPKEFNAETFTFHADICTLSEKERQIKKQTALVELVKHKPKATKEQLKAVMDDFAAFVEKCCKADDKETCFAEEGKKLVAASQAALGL
Procedure: as §2, §3

[16] = target: RNase A; assay: as above
RNase A, sequence (P61823 27-150): as the sequence (P61823 27-150) above
Procedure: as §2, §3

[17] = target: Lysozyme; assay: as above
Lysozyme, sequence (P00698 19-147): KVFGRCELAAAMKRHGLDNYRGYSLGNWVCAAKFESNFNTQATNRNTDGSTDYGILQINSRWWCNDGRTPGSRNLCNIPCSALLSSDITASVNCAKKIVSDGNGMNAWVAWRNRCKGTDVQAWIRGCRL
Procedure: as §2, §3

[18] = target: T9, anti-human Fab (Dianova); assay: as above
T9 construct: control of the 3P panel; it captures human IgG as such, so a ratio of 1 means a signal equal to that of MOR03207
Procedure: as §2, §3

[19] = target: T10, anti-human Fc; assay: as above
T10 construct: control of the 3P panel; it captures human IgG as such, so a ratio of 1 means a signal equal to that of MOR03207
Procedure: as §2, §3

[20] = target: Fibrinogen (b) (bovine); assay: as above
Fibrinogen (b) (bovine), sequence (P02672 20-615, chain 1 of 3): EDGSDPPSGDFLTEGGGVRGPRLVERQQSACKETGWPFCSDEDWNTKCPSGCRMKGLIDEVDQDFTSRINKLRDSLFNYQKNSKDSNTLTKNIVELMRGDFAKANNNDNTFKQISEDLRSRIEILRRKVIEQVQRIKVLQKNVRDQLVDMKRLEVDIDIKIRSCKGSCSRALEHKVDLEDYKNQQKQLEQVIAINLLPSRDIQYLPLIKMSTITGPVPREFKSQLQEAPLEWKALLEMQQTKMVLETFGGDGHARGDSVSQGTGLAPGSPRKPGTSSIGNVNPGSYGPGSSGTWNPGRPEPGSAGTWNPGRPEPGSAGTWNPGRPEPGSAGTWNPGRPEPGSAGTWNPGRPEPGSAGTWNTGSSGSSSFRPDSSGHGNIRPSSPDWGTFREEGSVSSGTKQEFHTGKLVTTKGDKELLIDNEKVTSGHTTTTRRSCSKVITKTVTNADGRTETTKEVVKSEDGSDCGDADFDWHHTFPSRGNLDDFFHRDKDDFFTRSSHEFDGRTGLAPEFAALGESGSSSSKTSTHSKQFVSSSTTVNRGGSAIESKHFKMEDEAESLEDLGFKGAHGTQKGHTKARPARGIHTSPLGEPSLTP
Fibrinogen (b) (bovine), sequence (P02676 whole entry, chain 2 of 3, further chain): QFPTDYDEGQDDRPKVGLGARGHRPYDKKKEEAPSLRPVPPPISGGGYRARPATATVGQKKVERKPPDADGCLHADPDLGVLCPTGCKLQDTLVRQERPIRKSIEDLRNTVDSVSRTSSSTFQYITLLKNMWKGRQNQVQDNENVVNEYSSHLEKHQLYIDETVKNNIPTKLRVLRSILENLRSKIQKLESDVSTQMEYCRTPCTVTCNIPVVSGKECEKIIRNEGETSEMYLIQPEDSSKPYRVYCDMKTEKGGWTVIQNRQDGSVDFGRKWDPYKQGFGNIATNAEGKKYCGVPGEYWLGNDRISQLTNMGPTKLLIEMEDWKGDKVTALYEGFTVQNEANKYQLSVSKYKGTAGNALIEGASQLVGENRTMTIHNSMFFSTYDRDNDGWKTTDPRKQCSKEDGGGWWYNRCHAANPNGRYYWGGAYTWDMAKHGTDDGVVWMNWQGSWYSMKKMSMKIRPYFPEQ
Fibrinogen (b) (bovine), sequence (P12799 25-444, chain 3 of 3, further chain): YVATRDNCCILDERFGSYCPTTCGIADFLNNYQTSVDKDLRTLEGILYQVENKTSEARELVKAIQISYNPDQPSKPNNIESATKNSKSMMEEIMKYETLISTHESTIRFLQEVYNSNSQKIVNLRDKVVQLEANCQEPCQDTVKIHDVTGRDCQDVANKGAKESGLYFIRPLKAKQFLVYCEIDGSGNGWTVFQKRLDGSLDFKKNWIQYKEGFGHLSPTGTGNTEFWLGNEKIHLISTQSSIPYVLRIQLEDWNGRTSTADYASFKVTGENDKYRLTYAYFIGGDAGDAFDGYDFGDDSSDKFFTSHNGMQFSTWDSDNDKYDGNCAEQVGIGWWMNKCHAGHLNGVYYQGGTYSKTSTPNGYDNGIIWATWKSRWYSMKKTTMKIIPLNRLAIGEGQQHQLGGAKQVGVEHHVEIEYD
Procedure: as §2, §3

[21] = target: T11, Hemoglobin (h) (human); assay: as above
T11 construct: '(h)' on the sheet read as human
T11 sequence (P69905 2-142, chain 1 of 2): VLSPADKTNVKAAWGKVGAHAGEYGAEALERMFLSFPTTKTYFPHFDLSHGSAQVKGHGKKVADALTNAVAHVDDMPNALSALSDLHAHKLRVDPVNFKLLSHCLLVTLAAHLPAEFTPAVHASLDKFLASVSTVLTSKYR
T11 sequence (P68871 2-147, chain 2 of 2, further chain): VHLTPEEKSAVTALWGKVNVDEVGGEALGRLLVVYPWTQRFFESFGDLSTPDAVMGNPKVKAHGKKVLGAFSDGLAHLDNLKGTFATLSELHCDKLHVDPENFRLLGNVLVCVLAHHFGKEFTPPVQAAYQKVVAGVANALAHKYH
Procedure: as §2, §3

[22] = target: Antitrypsin; assay: as above
Procedure: as §2, §3

[23] = target: T12, Cell surface rec. 3_Fc (h); assay: as above
T12 construct: identity not disclosed
Procedure: as §2, §3

[24] = target: GFP; assay: as above
Procedure: as §2, §3

[25] = target: T4, human C5aR_NT-bio peptide; assay: BLI (Octet HTX), biotinylated peptide on SA sensors, IgG as analyte, 1:1 fit, apparent (bivalent)

Binder | binding result [1] | binding result [2] | binding result [3] | binding result [4] | binding result [5] | binding ratio (signal / signal of MOR03207) [6] | binding ratio (signal / signal of MOR03207) [7] | binding ratio (signal / signal of MOR03207) [8] | binding ratio (signal / signal of MOR03207) [9] | binding ratio (signal / signal of MOR03207) [10] | binding ratio (signal / signal of MOR03207) [11] | binding ratio (signal / signal of MOR03207) [12] | binding ratio (signal / signal of MOR03207) [13] | binding ratio (signal / signal of MOR03207) [14] | binding ratio (signal / signal of MOR03207) [15] | binding ratio (signal / signal of MOR03207) [16] | binding ratio (signal / signal of MOR03207) [17] | binding ratio (signal / signal of MOR03207) [18] | binding ratio (signal / signal of MOR03207) [19] | binding ratio (signal / signal of MOR03207) [20] | also measured
B1 | no binding | no binding | binds | no binding | no binding | 1 | 1 | 1 | 3 | 1 | 1 | 1 | 1 | 1 | 1 | 2 | 1 | 1 | 1 | 1 | binding ratio (signal / signal of MOR03207) [21]: 1; binding ratio (signal / signal of MOR03207) [22]: 2; binding ratio (signal / signal of MOR03207) [23]: 2; binding ratio (signal / signal of MOR03207) [24]: 1; Kd [25]: 0.29 nM; koff [25]: 0.000111 s⁻¹; kon [25]: 378000 M⁻¹ s⁻¹
B2 | no binding | no binding | binds | no binding | no binding | 1 | 1 | 1 | 2 | 1 | 1 | 1 | 1 | 1 | 2 | 2 | 1 | 1 | 1 | 1 | binding ratio (signal / signal of MOR03207) [21]: 1; binding ratio (signal / signal of MOR03207) [22]: 1; binding ratio (signal / signal of MOR03207) [23]: 2; binding ratio (signal / signal of MOR03207) [24]: 1; Kd [25]: 0.02 nM; koff [25]: 9.99e-06 s⁻¹; kon [25]: 476000 M⁻¹ s⁻¹
